Measurements: PMC10585004

Molecular target: Bovine Thyroglobulin (Sigma-T1001) (bovine) (UniProt P01267)
Assay: SAXS; XFEL small-angle scattering, liquid jet (GDVN) with reservoir delivery, thyroglobulin 0.7 mg/ml in PBS; experimental form factor compared with the profile computed (CRYSOL) from the cryo-EM dimer model

Bovine Thyroglobulin (Sigma-T1001), P01267 20-2769
stoichiometry N: 2
